Earlier results on one substance are cited in patent US12377186B2, “Antimicrobial biopolymer compositions, methods of synthesis, and applications of use” (ARIZONA BOARD OF REGENTS ON BEHALF OF THE UNIVERSITY OF …, priority 2018, dated 2025).

For the data set the following is noted: cited from earlier work.

For the substance “[(VPGAG)2 (VPGYG)1 (VPGAG)2]36 [ELP (A2Y1A2)36]”, the “Tt, experimental of ELP (Tyr)” value (180 ELP pentapeptide repeats, according to previous research by Ingrole et al.) was 25 °C. The “change in Tt when fused to a hydrophilic peptide” value (relative to the smaller ELP(A2Y1A2)24) is recorded as “less change in Tt”.
